Measured values published in patent US20160177307.

What was measured:
[1] = system: T1, rVEGF164, P16612-2; assay: filter; conditions: rest DNA, SB18T, 37 C
T1 sequence: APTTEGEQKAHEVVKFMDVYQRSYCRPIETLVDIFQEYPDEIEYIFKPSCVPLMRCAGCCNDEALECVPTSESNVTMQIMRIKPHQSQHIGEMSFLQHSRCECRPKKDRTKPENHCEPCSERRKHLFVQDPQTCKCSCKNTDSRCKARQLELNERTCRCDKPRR

[2] = system: T2, VEGF-121 (Homo sapiens), P15692-9; assay: filter
T2 sequence: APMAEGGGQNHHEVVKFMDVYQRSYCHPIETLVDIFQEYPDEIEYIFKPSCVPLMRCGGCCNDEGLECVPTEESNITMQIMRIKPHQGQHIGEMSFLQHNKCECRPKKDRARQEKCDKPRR

[3] = system: T3, VEGF-165 (Homo sapiens), P15692-4; assay: filter
T3 sequence: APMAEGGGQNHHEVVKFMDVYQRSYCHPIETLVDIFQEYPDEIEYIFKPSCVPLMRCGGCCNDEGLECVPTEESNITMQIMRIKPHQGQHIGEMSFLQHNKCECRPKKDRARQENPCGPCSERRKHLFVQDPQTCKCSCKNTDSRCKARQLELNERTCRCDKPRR

[4] = system: T2, VEGF-121 (Homo sapiens), P15692-9; assay: cell_activity; conditions: NapdU at P, VEGFR2 phosphorylation, HUVEC
[5] = biological target: PDGF-BB (platelet-derived growth factor BB) (Homo sapiens) (UniProt P01127); assay: filter; conditions: NapdU at 4,5,10,13,14,16,21,23,27; 2'-OMe at C6,G9,C12,G15,A17,G18,G28,G29 and 2'-OMe-NapU22; 3'-inverted dT in Tables 26-27; specificity control, off-target PDGF-BB
[6] = system: T2, VEGF-121 (Homo sapiens), P15692-9; assay: competition; conditions: Nap-dU, 2'-OMe; head-to-tail dimer, no linker; VEGF isoform not given
[7] = biological target: PDGF-BB (platelet-derived growth factor BB) (Homo sapiens) (UniProt P01127); assay: competition
[8] = NapdU at 6,7,12,15,16,18,23,24,25,29, rest DNA, SB18T, 37 C
[9] = all P are NapdU, rest DNA, SB18T, 37 C

PDGF-BB (platelet-derived growth factor BB) (Homo sapiens), sequence (P01127 82-190): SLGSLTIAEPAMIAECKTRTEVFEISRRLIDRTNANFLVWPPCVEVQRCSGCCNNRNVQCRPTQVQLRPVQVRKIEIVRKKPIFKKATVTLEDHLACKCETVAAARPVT

AGCCGTTCAAGTGCTTGTAGGATTTAAATGGA [4867-31_43]
Kd ([1]; NapdU at 6,7,12,15,16,18,23,24,25,29): 0.05 nM | Kd [2, 8]: 0.29 nM | Kd [3, 8]: 0.05 nM | IC50 [4]: 2.2 nM

CAGCCGTTCAAGTGCTTGTAGGATTTAAATGGA [4867-31_42]
Kd ([1]; all P are NapdU): 0.05 nM | Kd [2, 9]: 0.2 nM | Kd [3, 9]: 0.071 nM

CCGTTCAAGTGCTTGTAGGATTTAAATGG [4867-31_192]
Kd [5]: 57 nM | Kd ([2]; NapdU at 4,5,10,13,14,16,21,23,27, 2'-OMe at C6,G9,C12,G15,A17,G18,G28,G29 and 2'-OMe-NapU22, 3'-inverted dT in Tables 26-27, 3'-idT, Table 27 gives 3.1E-11, Table 21 2.3E-11): 0.011 nM | Kd ([3]; NapdU at 4,5,10,13,14,16,21,23,27, 2'-OMe at C6,G9,C12,G15,A17,G18,G28,G29 and 2'-OMe-NapU22, 3'-inverted dT in Tables 26-27, 5'-OH form): 0.041 nM | IC50 ([4]; 2'-OMe 6,9,12,15,17,18,22,28,29): 2.1 nM

CCGTTCAAGTGCTTGTAGGATTTAAATGGCCGTTCAAGTGCTTGTAGGATTTAAATGG [4867-31_395]
Ki [6]: 0.0068 nM

CGACAGCATGTATGCACATCT [5169-4_188]
Ki ([7]; as 5169-4_146 plus PS 3' of 4,9,10,11,12, 3'-idT, competition with 32P ligand, SB18T, 37 C): 0.0086 nM

CGACAGCATGTATGCACATCTCGACAGCATGTATGCACATCT [5169-4_134]
Ki ([7]; Nap-dU, head-to-tail dimer, no linker): 0.028 nM
